Test results from publication PMC2730839.

Substrate: O=C(O)C(=O)c1ccccc1
Test: steady-state kinetics
Format: biochemical, Pseudomonas putida
Conditions: thiamin diphosphate (ThDP), Mg2+ active site

B1: benzoylformate decarboxylase (BFDC) (Pseudomonas putida) (protein)
chain: MASVHGTTYELLRRQGIDTVFGNPGSNELPFLKDFPEDFRYILALQEACVVGIADGYAQASRKPAFINLHSAAGTGNAMGALSNAWNSHSPLIVTAGQQTRAMIGVEALLTNVDAANLPRPLVKWSYEPASAAEVPHAMSRAIHMASMAPQGPVYLSVPYDDWDKDADPQSHHLFDRHVSSSVRLNDQDLDILVKALNSASNPAIVLGPDVDAANANADCVMLAERLKAPVWVAPSAPRCPFPTRHPCFRGLMPAGIAAISQLLEGHDVVLVIGAPVFRYHQYDPGQYLKPGTRLISVTCDPLEAARAPMGDAIVADIGAMASALANLVEESSRQLPTAAPEPAKVDQDAGRLHPETVFDTLNDMAPENAIYLNESTSTTAQMWQRLNMRNPGSYYFCAAGGLGFALPAAIGVQLAEPERQVIAVIGDGSANYSISALWTAAQYNIPTIFVIMNNGTYGALRWFAGVLEAENVPGLDVPGIDFRALAKGYGVQALKADNLEQLKGSLQEALSAKGPVLIEVSTVSPVK
Km: 760 ± 90 µM
